Results on 4 substances are retold here after article PMC8431453.

In the test the target is Met receptor tyrosine kinase (human (endogenous in EHMES-1)) (UniProt P08581).
Sequence of UniProt P08581 (P08581 25-1390): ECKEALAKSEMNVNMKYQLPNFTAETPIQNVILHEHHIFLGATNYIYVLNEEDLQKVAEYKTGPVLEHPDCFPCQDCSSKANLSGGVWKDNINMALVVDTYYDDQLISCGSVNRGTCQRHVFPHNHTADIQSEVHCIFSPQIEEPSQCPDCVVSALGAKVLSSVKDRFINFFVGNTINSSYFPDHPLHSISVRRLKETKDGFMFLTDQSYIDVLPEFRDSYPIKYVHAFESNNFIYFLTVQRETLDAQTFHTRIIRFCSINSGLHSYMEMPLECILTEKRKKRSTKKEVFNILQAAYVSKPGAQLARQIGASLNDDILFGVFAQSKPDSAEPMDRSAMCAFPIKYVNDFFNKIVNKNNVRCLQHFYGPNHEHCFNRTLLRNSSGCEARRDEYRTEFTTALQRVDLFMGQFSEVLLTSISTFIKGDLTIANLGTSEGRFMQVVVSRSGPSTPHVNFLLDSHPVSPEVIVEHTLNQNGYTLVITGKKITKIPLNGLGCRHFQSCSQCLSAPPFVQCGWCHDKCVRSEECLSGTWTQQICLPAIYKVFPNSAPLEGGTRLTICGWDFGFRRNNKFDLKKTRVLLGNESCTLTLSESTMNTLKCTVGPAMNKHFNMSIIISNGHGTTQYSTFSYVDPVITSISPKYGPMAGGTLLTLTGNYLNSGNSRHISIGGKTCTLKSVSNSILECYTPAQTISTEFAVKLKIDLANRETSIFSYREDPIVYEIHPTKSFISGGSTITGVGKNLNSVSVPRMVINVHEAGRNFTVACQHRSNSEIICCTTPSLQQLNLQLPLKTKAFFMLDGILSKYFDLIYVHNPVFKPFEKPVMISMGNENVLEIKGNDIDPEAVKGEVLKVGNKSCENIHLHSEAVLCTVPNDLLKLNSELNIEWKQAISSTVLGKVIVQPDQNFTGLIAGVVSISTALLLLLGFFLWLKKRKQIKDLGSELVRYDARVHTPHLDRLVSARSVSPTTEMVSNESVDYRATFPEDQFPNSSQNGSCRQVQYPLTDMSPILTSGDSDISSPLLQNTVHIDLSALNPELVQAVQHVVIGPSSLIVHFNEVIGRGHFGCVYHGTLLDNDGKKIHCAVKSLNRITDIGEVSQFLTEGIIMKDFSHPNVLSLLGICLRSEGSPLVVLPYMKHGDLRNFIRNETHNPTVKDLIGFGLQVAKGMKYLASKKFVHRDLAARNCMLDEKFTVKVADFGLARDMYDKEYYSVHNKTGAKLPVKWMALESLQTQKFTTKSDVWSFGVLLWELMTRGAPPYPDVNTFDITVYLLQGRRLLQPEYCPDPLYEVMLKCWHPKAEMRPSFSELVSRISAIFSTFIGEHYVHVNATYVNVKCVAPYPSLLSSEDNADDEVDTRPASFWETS

K144A mutant NK1 (ligand): the Met Y1234/1235 phosphorylation in EHMES-1 cells, cell-based ELISA, at 30 nM, compared with wild-type NK1 came out at 52.2%. Still for that read-out and setting: in the case of N127A mutant NK1 (ligand) it was 8.3%; in that of V140A mutant NK1 (ligand), 23.8%. As for “wild-type hepatocyte growth factor (two-chain HGF) (from UniProt P14210-3 32-489) (ligand)”, the Met Y1234/1235 phosphorylation in EHMES-1 cells, cell-based ELISA, compared with 30 nM wild-type NK1 (fold of 30 nM wild-type NK1) came to 2.5.
